Columns and labels:
[1] = target: T1, Zif268 (mouse, UniProt P08046 333-421); test: ELISA
[2] = target: T1, Zif268; test: SPR
[3] = target: T1, Zif268; test: SPR; remark: listed apart in the source

B1: ZifDNA (dsDNA)
DNA 1: GGCATAGTGCGTGGGCGTTAGC
DNA 2: GCTAACGCCCACGCACTATGCC
Kd [1]: 12 ± 5 nM | Kd [2]: 5.3 ± 1.5 nM

B2: Htelo (structured_DNA)
DNA: GGTTAGGGTTAGGGTTAGGGTTAGGGTTAG
binding result [3]: no binding

Source: article PMC2196205
